{"source": "patent US11856945B2", "about": "“Methods and systems for preparing and preserving a biological sample” (Washington University, priority 2017, dated 2024)", "type_in_all_cases": "physicochemical", "key": {"[1]": {"assay": "Recovery/elution of NGAL from ZIF-8 crystals and paper substrates (ELISA)", "details": "dried on paper, recovered immediately after drying; spiked NGAL amount = 100%", "source_text": "Preliminary experiments for investigating optimal buffer to dissolve NGAL embedded ZIF-8 crystals. To completely dissolve the crystals, the final pH of the system needs to be at or below 6.0 to ensure the complete release of NGAL from ZIF-8 encapsulation. For example, in the #4 composition (0.1 M phosphate buffer at pH 6.0), the crystals cannot be completely dissolved and this leads to incomplete recovery 60%, FIG. 8). Although the initial pH of the buffer is 6.0, the basic nature of ZIF-8 precursor residue in the system increases the pH of the buffer to 6.2, leading to incomplete release and recovery.\nLeft bar: Recovery percentage of ZIF-8 encapsulated NGAL dried on paper using the optimized elution buffer (#9 composition, 0.2 M PBS at pH=5.6 with 2 mM EDTA and 0.1% Tween 20). Middle bar: Recovery percentage of ZIF-8 encapsulated NGAL dried on paper using the #4 composition elution buffer (0.1 M PBS at pH=6 and 0.1% Tween 20). Right bar: Recovery percentage of NGAL alone dried on paper using the conventional elution buffer recipe (PBS at pH=7.4 with 0.1% Tween 20). The samples were recovered immediately after drying. 1 ml elution buffer was used to elute each paper strip. The spiked NGAL amount was set as the reference (100% recovery).\nProtein recovery. […]"}, "[2]": {"assay": "NGAL quantity in eluates by BCA assay", "details": "paper card stored at 40° C. for 1 week; % of spiked amount"}, "[3]": {"assay": "NGAL encapsulation efficiency in ZIF-8 crystals (ELISA of supernatant)", "protocol": "To quantify the encapsulation efficiency, the supernatant after crystals centrifugation was collected and remaining NGAL concentration was determined using sandwich enzyme-linked immunosorbent assay (ELISA). […] The encapsulation efficiency was calculated by subtracting the remaining NGAL amount in the supernatant after encapsulation and centrifugation (concentration measured by ELISA) from the total NGAL amount.\nCharacterization. To characterize protein-embedded crystals, crystals were centrifuged and washed with DI water twice (8 k r.p.m. for 20 minutes). To calculate the encapsulation efficiency, the supernatant after first centrifugation was collected and assayed by ELISA. SEM images were obtained using a FEI Nova 2300 field-emission scanning electron microscope at an acceleration voltage of 10 kV. Fourier transform infrared spectroscopy (FTIR) measurements were conducted using a Nicolette Nexus 470 spectrometer. The Raman spectra were obtained using a Renishaw inVia confocal Raman spectrometer mounted on a Leica microscope with a 50× objective and a 514 nm wavelength diode laser as an illumination source. The X-ray diffraction (XRD) measurements of the samples were recorded on a Bruker D8-Advance X-ray powder diffractometer using Cu Kα radiation (λ=1.5406 Å)."}}}
{"molecule": "neutrophil gelatinase-associated lipocalin (protein, UniProt P80188 21-198, looked up, urinary biomarker for acute kidney injury; human recombinant) Neutrophil …: QDSTSDLIPAPPLSKVPLQQNFQDNQFQGKWYVVGLAGNAILREDKDPQKMYATIYELKEDKSYNVTSVLFRKKKCDYWIRTFVPGCQPGEFTLGNIKSYPGLTSYLVRVVSTNYNQHAMVFFKKVSQNREYFKITLYGRTKELTSELKENFIRFSKSLGLPENHIVFPVPIDQCIDG", "values": [{"measurement": "elution from paper substrate", "setting": "[1]", "result": "~75", "unit": "%"}, {"measurement": "proteins eluted as measured by BCA assay", "setting": "[2]", "result": 70, "unit": "%"}, {"measurement": "encapsulation of NGAL", "setting": "[3]; 40 mM 2-methylimidazole with 10 mM zinc acetate", "result": "~70", "unit": "%"}, {"measurement": "encapsulation efficiency of NGAL", "setting": "[3]; NGAL spiked in artificial urine, 40 mM zinc acetate and 160 mM 2-methylimidazole", "result": "~95", "unit": "%"}, {"measurement": "encapsulation efficiency of NGAL", "setting": "[3]; control: mixing NGAL-spiked artificial urine with pure pre-formed ZIF-8 crystals (physical adsorption)", "result": "~10", "unit": "%"}]}
